Assay results as given in IntAct's records for PubMed 23322602.

Molecular target: adt2_human SLC25A5 (UniProt P05141)
Sequence (P05141 whole entry): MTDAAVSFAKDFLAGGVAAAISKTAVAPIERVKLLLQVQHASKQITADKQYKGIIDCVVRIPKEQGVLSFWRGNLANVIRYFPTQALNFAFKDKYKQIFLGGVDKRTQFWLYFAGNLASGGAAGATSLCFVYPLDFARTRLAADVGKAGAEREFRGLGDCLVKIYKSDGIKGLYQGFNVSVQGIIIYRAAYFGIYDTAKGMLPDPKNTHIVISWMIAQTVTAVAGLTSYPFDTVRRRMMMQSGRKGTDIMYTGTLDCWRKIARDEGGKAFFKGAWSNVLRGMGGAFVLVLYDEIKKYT

Chain of Cytoplasmic protein NCK2 (Homo sapiens), O43639 R311K (O43639 whole entry R311K): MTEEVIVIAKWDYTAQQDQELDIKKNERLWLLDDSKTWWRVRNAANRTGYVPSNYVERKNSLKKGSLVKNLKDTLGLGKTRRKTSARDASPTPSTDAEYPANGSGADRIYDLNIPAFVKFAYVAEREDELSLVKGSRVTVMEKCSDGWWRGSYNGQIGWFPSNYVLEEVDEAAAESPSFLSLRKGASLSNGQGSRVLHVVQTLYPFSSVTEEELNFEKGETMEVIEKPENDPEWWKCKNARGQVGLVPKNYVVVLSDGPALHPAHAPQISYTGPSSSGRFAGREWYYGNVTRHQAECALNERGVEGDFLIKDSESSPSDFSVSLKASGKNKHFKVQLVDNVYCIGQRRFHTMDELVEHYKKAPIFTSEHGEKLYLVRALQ

Cytoplasmic protein NCK2 (Homo sapiens), O43639 R311K
effect of a mutation on the interaction: disrupting interaction
